According to US20100099601A1:

Biological target: Insulin-like Growth Factor Receptor (IGFR; Type I IGF receptor) (UniProt P08069)
Test: displacement of 125I-IGF-1 from IGFR

- Kd: 3.14 nM
- Relative Affinity (to IGF-1): 0.015 fold
- fold affinity relative to human insulin: 2 to 3 fold
Substance: Lantus (insulin analogue with two additional Arg residues at the carboxy-terminal end of the B-chain) (ligand)
